Numbered stars: 1 amine (or outer) side, 2 acyl side, 3 side chain; on linkers, the order of the positions; unused ones are H or OH. Bridge positions count the residues as written; N and C are the ends. Ends that are not written are not given here. TATA = O=C(CC[*:1])N1CN(C(=O)CC[*:2])CN(C(=O)CC[*:3])C1
Key:
[1] = biological target: T1, human carbonic anhydrase IX (human, UniProt Q16790 38-414); assay: competition fluorescence polarisation, fluorescent ligand (SEQ ID NO: 18)-Sar6-K(FI)
[2] = biological target: T1, human carbonic anhydrase IX; assay: cell-based or functional assay

Binder | Ki [1] [nM] | Enzyme IC50 [2] [nM]
ACGDCIWVDGWVCA (linker 2-5-13 via TATA) [61-25-01-N001] | 26.5 | 939
ACRDCIWVDGWVCA (linker 2-5-13 via TATA) [61-25-02-N001] | 30 | –
ACGLCIWVDGWVCA (linker 2-5-13 via TATA) [61-26-00-N001] | 51 | –
ACGRCTWVDGWICA (linker 2-5-13 via TATA) [61-27-00-N001] | 1610 | –
ACTDCIWVDGWMCA (linker 2-5-13 via TATA) [61-28-00-N001] | 442 | –
ACVECWADGWVNCA (linker 2-5-13 via TATA) [61-29-00-N001] | 129 | –
ACGACTWADGWVCA (linker 2-5-13 via TATA) [61-25-00-N001] | 2280 | –
ACVDCVWVDGWVCA (linker 2-5-13 via TATA) [61-25-03-N001] | 70.5 | –

The next lines start with the values.

Ki [1] [nM] | Enzyme IC50 [2] [nM] | Binder
99.5 | 1330 | ACSSECIWVDGWVCA (linker 2-6-14 via TATA) [61-30-01-N001]
103 | – | ACHAHCLWVDGWVCA (linker 2-6-14 via TATA) [61-30-00-N001]
193 | – | ACTETCIWVDGWVCA (linker 2-6-14 via TATA) [61-30-02-N001]
158 | – | ACANNCIWVDGWVCA (linker 2-6-14 via TATA) [61-30-03-N001]
326 | – | ACLSHCLWVDGWVCA (linker 2-6-14 via TATA) [61-31-00-N001]

Source: patent US20220088118A1 (Bicycle, published 2022)
